Measured values as given in US8530213B2, “Compositions and methods for using NADH oxidases” (Georgia Tech Research Corporation, priority 2009, dated 2013).

Key:
[1] = NOX5 mutants assayed at the cell lysate level, NADH activity; type: biochemical
Experimental: (§1) Standard assays were performed at 25° C. in 100 mM TEA buffer (pH 7.5) with 5 mM DTT in cuvettes with either a 1 cm or 1 mm path length, depending on the concentration of substrate. Initial activity was measured by following the absorbance change using a Beckman Coulter DU 800 UV/Vis spectrophotometer at 340 nm. Activity of the enzyme was calculated using an extinction coefficient of NAD(P)H, ε, as 6.22 mM^−1 cm^−1. Unless otherwise noted, a substrate concentration of 0.2 mM NADPH was used for assays. 1 unit (U) of activity is defined as […].
(§2) Single mutations were done on residues G178 and L179 into K, R and K, R, H respectively, and double mutations were also investigated with different combinations of the single mutations. The mutation of G178H was excluded due to the fact that the enzyme would then have two histidines next to each other, creating steric hindrance in the binding pocket. The resulting mutants were expressed on small scale and assayed at the cell lysate level.

[2] = Total turnover number (TTN), NADH; type: biochemical; parameters: key: TTN = change in NAD(P)H concentration / amount of enzyme
Experimental: Standard kinetic assays were performed with small amounts of enzyme. Assays were carried out for two to three hours until there was no more enzymatic conversion of the substrate.
Total turnover number (TTN) is a measurement of catalyst productivity. For biocatalysts, TTN is defined as the total amount of product produced over the lifetime of an enzyme. […] […] (data not shown).
This experiment was repeated to see if the presence of reducing agents had any effect on the total turnover number. The stock solution of enzyme was dialyzed against 250 mL of 10 mM Tris-HCl (pH 7.5) for two hours. The solution was then exchanged and dialyzed for an additional 2 hours. The TTN was then measured with the dialyzed enzyme with and without reducing agents. DTT and β-mercaptoethanol (β-ME) were used at a concentration of 5 mM. The TTN for the sample with no reducing agents, DTT and β-ME were 128,000, 168,000 and 107,000, respectively.

[3] = Amplex Red assay of H2O2 produced during turnover; type: biochemical; details: 50 mM sodium phosphate buffer (pH 7.4)
Experimental: An Amplex Red Hydrogen Peroxide/Peroxidase Assay Kit (Invitrogen) was used to determine the amount of hydrogen peroxide (H2O2) produced during turnover. Various amounts of substrates were reacted and assayed to detect the presence of H2O2. The reactions were carried out in the provided 50 mM sodium phosphate buffer (pH 7.4). Standards for the calibration curve were made with the same reaction buffer.
To determine whether NOX5 is a water or hydrogen peroxide producing enzyme, an amplex red assay was performed. The presence of H2O2 can be confirmed by incubating the standard assay mixture with amplex red and peroxidase. Produced resorufin can be detected using a fluorescence spectroscopy analysis.

[4] = NOX5 mutants assayed at the cell lysate level, NADPH activity; type: biochemical
Experimental: as §1, §2

[5] = Temperature stability (30 minutes incubation, assayed at 25° C.); type: physicochemical
Experimental: Temperature stability was studied by incubating the enzyme at various temperatures for 30 minutes. The enzyme solution was then cooled down and assayed at 25° C. This study covered a temperature range of 15° C. to 55° C.

[6] = Temperature activity profile; type: biochemical
Experimental: as §1
Temperature dependent activity was studied by incubating the enzyme at different temperatures. After one minute of incubation, the standard assay was carried out. A temperature range of 10 to 55° C. was chosen for this study.

[7] = Kinetic parameters of purified NADH oxidases, substrate NADH; type: biochemical; details: purified enzyme, excess of oxygen
Experimental: as §1
[…] This was conducted with an excess of oxygen present in the system. The reaction was initiated by mixing two separate 2× solutions of each the substrate and enzyme. The specific activity was measured, and the kinetic parameters were calculated from that data.
The data was fitted with four different models: non-linear Michaelis-Menten, Lineweaver-Burk, Eadie-Hofstee and Hanes. Through non-linear fitting, kcat and KM of the wild type were measured to be 211.6 s^−1 and 50.2 μM, respectively with an R^2 of 0.998. (FIG. 5).

[8] = pH activity profile; type: biochemical; details: 25° C., 100 mM buffers
Experimental: as §1
Enzyme pH activity profiles were obtained at 25° C. using 100 mM buffers with the following salts: sodium citrate from pH 4.0 to pH 6.5; sodium phosphate from pH 6.0 to pH 8.0; TEA from pH 7.0 to pH 8.0; Tris-HCl from pH 7.0 to pH 9.0; glycine from pH 9.0 to pH 10.0.

B1: NOX5: NADH oxidase V from Lactobacillus plantarum, wild type, 49 kDa, SEQ ID NO: 1 (protein, listed as Lactobacillus plantarum)
chain: MKVIVIGCTHAGTAAVNQILASNPDTEVTIYERNDNVSFLSCGIALYLGGQVADPQGLFYSSPEQLAKLGATVHMQHDVTDVNTDKHEITVTDLKTGESKTDHYDKLVVTTGSWPVIPPIDGIDSPNVYLCKNWTHAQNLWEAAKPAKRVIVIGGGYIGTELVEAYQKQGKEVTLIDGLPRILNKYLDKEFTDRVEQDFVDHGIKMALNQMVQGFSDDGKEVTVKTDKGSYTADMAILCVGFRPNTGLLKGKVDMNANGSIKTNDYMQTSDPDIYGAGDSVAVHYNPTKKDAYIPLATNAVRQGTLVGLNIFKPTRKYMGTQSTSGLMLFGQTIVSSGMTLEHAQAENVPAAAVTFEDNYRPEFMPTTKPVLMQLVYNPETREILGAQFMSEHDVSQSANVISVMIQNHNTIDDLGFVDMFFQPIYDRPFNYLNLLGQAAIAHAAEAVTE
With B1 the NADH activity [1] was 10.0 U/mg, the “TTN with DTT, NADH” value ([2]; 5 mM DTT, 25° C., listed as NOX5 WT) was 168,000 and the “TTN with β-mercaptoethanol (β-ME)” value ([2]; 5 mM β-ME, dialyzed enzyme) was 107,000. For the same molecule, the “TTN, NADH” value ([2]; no reducing agents) was 128,000, the “H2O2 produced, ratio of NADH” value [3] was 2.63% and the NADPH activity [4] was 0.00 U/mg. The “Enthalpy of deactivation, ΔH” value [5] was 1.19 kcal/mol, the “activity at 55° C.” value ([5]; 55° C.) was “inactive” and the “T50^30, temperature that exhibited half of the original activity” value ([5]; 30 minutes incubation) was 45 °C. The “activation energy, Ea” value ([6]; Arrhenius model) was 7.82 kcal/mol, the “deactivation energy, Ed” value ([6]; Arrhenius model) was -22.4 kcal/mol and the “temperature of maximum instantaneous activity” value ([6]; range 10 to 55° C., one minute of incubation) was 40 °C. For the same molecule, the Km [7] was 50.2 µM, the “kcat, NADH” value [7] was 211.6 s⁻¹ and the “pH of maximum activity” value [8] was 7.5.
